Experimental data reported in US20140274782A1, “AFFINITY REAGENTS AND METHODS FOR DETECTION, PURIFICATION, AND PROTEOMIC ANALYSIS OF METHYLATED PROTEINS” (The Board of Trustees of the Leland Stanford Junior …, priority 2013, published 2014).

T1: G9a and GLP (Homo sapiens, UniProt Q96KQ7+Q9H9B1)
T1 sequence (Q96KQ7 2-1210 limits assumed): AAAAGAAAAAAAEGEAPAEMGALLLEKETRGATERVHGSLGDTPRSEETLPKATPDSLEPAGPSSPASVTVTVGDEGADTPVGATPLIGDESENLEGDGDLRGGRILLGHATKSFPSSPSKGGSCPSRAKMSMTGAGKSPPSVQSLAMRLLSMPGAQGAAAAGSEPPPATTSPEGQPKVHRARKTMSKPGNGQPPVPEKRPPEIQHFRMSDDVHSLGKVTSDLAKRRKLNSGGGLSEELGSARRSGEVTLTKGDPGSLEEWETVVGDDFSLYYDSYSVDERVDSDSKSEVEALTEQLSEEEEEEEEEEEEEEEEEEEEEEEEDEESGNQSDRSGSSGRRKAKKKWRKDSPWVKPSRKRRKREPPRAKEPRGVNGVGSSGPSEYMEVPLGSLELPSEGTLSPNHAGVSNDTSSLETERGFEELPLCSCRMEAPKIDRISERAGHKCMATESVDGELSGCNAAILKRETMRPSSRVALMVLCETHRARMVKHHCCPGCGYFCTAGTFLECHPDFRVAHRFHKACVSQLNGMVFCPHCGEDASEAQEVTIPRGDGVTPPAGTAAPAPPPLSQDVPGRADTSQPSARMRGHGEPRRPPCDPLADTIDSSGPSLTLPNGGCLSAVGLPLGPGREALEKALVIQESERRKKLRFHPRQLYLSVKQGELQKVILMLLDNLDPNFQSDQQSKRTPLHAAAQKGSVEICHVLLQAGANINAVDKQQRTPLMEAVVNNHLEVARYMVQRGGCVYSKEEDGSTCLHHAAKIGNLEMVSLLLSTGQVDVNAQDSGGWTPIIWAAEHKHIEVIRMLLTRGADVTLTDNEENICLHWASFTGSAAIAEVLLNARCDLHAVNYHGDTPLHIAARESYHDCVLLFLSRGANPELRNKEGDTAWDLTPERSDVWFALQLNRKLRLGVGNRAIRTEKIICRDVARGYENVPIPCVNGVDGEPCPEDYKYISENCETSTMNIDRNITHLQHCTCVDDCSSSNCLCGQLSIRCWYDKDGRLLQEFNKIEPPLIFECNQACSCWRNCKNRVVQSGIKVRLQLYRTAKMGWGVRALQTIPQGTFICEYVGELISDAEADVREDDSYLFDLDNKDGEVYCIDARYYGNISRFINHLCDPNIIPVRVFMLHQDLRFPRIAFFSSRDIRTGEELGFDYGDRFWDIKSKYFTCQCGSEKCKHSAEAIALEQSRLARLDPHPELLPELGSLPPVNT
T1 sequence (Q9H9B1 2-1298 limits assumed): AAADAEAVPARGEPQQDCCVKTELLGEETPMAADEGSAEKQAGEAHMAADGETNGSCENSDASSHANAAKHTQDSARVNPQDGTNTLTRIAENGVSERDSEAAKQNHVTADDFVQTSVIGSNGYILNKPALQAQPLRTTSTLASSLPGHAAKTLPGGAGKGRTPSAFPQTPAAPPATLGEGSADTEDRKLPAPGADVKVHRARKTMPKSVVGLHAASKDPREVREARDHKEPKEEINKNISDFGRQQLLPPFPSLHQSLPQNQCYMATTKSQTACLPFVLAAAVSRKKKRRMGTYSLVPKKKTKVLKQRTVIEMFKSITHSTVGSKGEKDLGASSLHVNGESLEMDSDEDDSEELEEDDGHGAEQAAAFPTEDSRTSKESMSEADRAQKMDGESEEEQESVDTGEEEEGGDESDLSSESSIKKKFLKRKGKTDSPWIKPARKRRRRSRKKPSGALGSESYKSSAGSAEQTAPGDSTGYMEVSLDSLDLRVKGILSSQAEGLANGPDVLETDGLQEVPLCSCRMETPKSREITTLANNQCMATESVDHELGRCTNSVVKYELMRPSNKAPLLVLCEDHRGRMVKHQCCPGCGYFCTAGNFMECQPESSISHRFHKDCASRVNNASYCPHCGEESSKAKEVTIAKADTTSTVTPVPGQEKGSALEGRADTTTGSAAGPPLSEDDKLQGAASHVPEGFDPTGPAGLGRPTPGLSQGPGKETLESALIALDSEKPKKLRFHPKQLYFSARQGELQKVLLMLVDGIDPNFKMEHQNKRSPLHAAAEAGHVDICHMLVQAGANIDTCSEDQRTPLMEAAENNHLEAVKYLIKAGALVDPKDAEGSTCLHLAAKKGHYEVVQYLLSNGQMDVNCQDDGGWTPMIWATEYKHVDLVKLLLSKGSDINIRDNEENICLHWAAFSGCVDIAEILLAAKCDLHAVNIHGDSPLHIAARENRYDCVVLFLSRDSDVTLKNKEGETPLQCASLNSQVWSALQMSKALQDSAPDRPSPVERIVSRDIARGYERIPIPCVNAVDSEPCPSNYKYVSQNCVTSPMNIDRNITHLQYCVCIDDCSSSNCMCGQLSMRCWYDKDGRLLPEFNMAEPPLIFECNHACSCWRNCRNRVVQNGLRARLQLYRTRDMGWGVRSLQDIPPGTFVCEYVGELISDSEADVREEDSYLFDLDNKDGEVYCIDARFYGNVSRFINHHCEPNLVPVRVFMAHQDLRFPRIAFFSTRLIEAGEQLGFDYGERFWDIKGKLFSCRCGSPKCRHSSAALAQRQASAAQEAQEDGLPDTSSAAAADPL


Tests used:
[1] = test system: 3×MBT domain of L3MBTL1; assay: Triple SILAC pull-down, 3xMBT/3xMBTD355N ratio (cytoplasmic, nuclear and chromatin fractions of 293T cells); format: binding, human; settings: SILAC ratio, pull-down 3xMBT vs 3xMBTD355N; for 3xMBT/D355N UNC Heavy: experiment with UNC0638 in heavy SILAC media; for 3xMBT/D355N UNC Light: experiment with UNC0638 in light SILAC media;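 as to all read-outs here: proteins quantified with MaxQuant, requiring at least two unique peptides and quantification in both label directions, normalized to the mean of proteins from a digested loading control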
[2] = target: T1, G9a and GLP; assay: Triple SILAC pull-down after UNC0638 treatment of 293T cells, DMSO/UNC0638 ratio of protein captured by 3×MBT; format: cell-based; parameters: endogenous in cells; host or cells: HEK 293T; settings: for Relative to UNC0638 UNC Heavy / Relative to UNC0638 UNC Light: SILAC ratio DMSO/UNC0638 of protein pulled down with 3xMBT; for Relative to UNC0638 UNC Heavy: UNC0638 in heavy SILAC media; for Relative to UNC0638 UNC Light: UNC0638 in light SILAC media; for Relative to UNC0638 Average: average of UNC Light and UNC Heavy experiments;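 as to all read-outs here: mass spectrometry (Q-Exactive) SILAC quantitation, DMSO/UNC0638 ratio computed after subtracting 3×MBTD355N mutant pull-down background, only proteins with at least twofold 3×MBT over mutant signal considered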

Relative to UNC0638 UNC Heavy [2] [log base 2] | Relative to UNC0638 UNC Light [2] [log base 2] | Relative to UNC0638 Average [2] [log base 2] | Molecule | 3xMBT/D355N UNC Heavy [1] [log base 2] | 3xMBT/D355N UNC Light [1] [log base 2]
0.50 | 0.26 | 0.38 | SEPT7 (protein, UniProt Q16181 2-437, looked up) Septin-7: SVSARSAAAEERSVNSSTMVAQQKNLEGYVGFANLPNQVYRKSVKRGFEFTLMVVGESGLGKSTLINSLFLTDLYSPEYPGPSHRIKKTVQVEQSKVLIKEGGVQLLLTIVDTPGFGDAVDNSNCWQPVIDYIDSKFEDYLNAESRVNRRQMPDNRVQCCLYFIAPSGHGLKPLDIEFMKRLHEKVNIIPLIAKADTLTPEECQQFKKQIMKEIQEHKIKIYEFPETDDEEENKLVKKIKDRLPLAVVGSNTIIEVNGKRVRGRQYPWGVAEVENGEHCDFTILRNMLIRTHMQDLKDVTNNVHYENYRSRKLAAVTYNGVDNNKNKGQLTKSPLAQMEEERREHVAKMKKMEMEMEQVFEMKVKEKVQKLKDSEAELQRRHEQMKKNLEAQHKELEEKRRQFEDEKANWEAQQRILEQQNSSRTLEKNKKKGKIF | 2.75 | 2.54
0.94 | −0.18 | 0.38 | WDR70 (protein, UniProt Q9NW82 1-654, looked up) WD repeat-containing protein …: MERSGPSEVTGSDASGPDPQLAVTMGFTGFGKKARTFDLEAMFEQTRRTAVERSRKTLEAREKEEEMNREKELRRQNEDIEPTSSRSNVVRDCSKSSSRDTSSSESEQSSDSSDDELIGPPLPPKMVGKPVNFMEEDILGPLPPPLNEEEEEAEEEEEEEEEEENPVHKIPDSHEITLKHGTKTVSALGLDPSGARLVTGGYDYDVKFWDFAGMDASFKAFRSLQPCECHQIKSLQYSNTGDMILVVSGSSQAKVIDRDGFEVMECIKGDQYIVDMANTKGHTAMLHTGSWHPKIKGEFMTCSNDATVRTWEVENPKKQKSVFKPRTMQGKKVIPTTCTYSRDGNLIAAACQNGSIQIWDRNLTVHPKFHYKQAHDSGTDTSCVTFSYDGNVLASRGGDDSLKLWDIRQFNKPLFSASGLPTMFPMTDCCFSPDDKLIVTGTSIQRGCGSGKLVFFERRTFQRVYEIDITDASVVRCLWHPKLNQIMVGTGNGLAKVYYDPNKSQRGAKLCVVKTQRKAKQAETLTQDYIITPHALPMFREPRQRSTRKQLEKDRLDPLKSHKPEPPVAGPGRGGRVGTHGGTLSSYIVKNIALDKTDDSNPREAILRHAKAAEDSPYWVSPAYSKTQPKTMFAQVESDDEEAKNEPEWKKRKI | 2.21 | 2.93
0.96 | −0.22 | 0.37 | RRM1 (protein, UniProt P23921 1-792, looked up) Ribonucleoside-diphosphate …: MHVIKRDGRQERVMFDKITSRIQKLCYGLNMDFVDPAQITMKVIQGLYSGVTTVELDTLAAETAATLTTKHPDYAILAARIAVSNLHKETKKVFSDVMEDLYNYINPHNGKHSPMVAKSTLDIVLANKDRLNSAIIYDRDFSYNYFGFKTLERSYLLKINGKVAERPQHMLMRVSVGIHKEDIDAAIETYNLLSERWFTHASPTLFNAGTNRPQLSSCFLLSMKDDSIEGIYDTLKQCALISKSAGGIGVAVSCIRATGSYIAGTNGNSNGLVPMLRVYNNTARYVDQGGNKRPGAFAIYLEPWHLDIFEFLDLKKNTGKEEQRARDLFFALWIPDLFMKRVETNQDWSLMCPNECPGLDEVWGEEFEKLYASYEKQGRVRKVVKAQQLWYAIIESQTETGTPYMLYKDSCNRKSNQQNLGTIKCSNLCTEIVEYTSKDEVAVCNLASLALNMYVTSEHTYDFKKLAEVTKVVVRNLNKIIDINYYPVPEACLSNKRHRPIGIGVQGLADAFILMRYPFESAEAQLLNKQIFETIYYGALEASCDLAKEQGPYETYEGSPVSKGILQYDMWNVTPTDLWDWKVLKEKIAKYGIRNSLLIAPMPTASTAQILGNNESIEPYTSNIYTRRVLSGEFQIVNPHLLKDLTERGLWHEEMKNQIIACNGSIQSIPEIPDDLKQLYKTVWEISQKTVLKMAAERGAFIDQSQSLNIHIAEPNYGKLTSMHFYGWKQGLKTGMYYLRTRPAANPIQFTLNKEKLKDKEKVSKEEEEKERNTAAMVCSLENRDECLMCGS | 1.23 | 0.94
0.36 | 0.37 | 0.36 | PPP1R10 (protein, UniProt Q96QC0 1-940, looked up) Serine/threonine-protein …: MGSGPIDPKELLKGLDSFLNRDGEVKSVDGISKIFSLMKEARKMVSRCTYLNILLQTRSPEILVKFIDVGGYKLLNNWLTYSKTTNNIPLLQQILLTLQHLPLTVDHLKQNNTAKLVKQLSKSSEDEELRKLASVLVSDWMAVIRSQSSTQPAEKDKKKRKDEGKSRTTLPERPLTEVKAETRAEEAPEKKREKPKSLRTTAPSHAKFRSTGLELETPSLVPVKKNASTVVVSDKYNLKPIPLKRQSNVAAPGDATPPAEKKYKPLNTTPNATKEIKVKIIPPQPMEGLGFLDALNSAPVPGIKIKKKKKVLSPTAAKPSPFEGKTSTEPSTAKPSSPEPAPPSEAMDADRPGTPVPPVEVPELMDTASLEPGALDAKPVESPGDPNQLTRKGRKRKSVTWPEEGKLREYFYFELDETERVNVNKIKDFGEAAKREILSDRHAFETARRLSHDNMEEKVPWVCPRPLVLPSPLVTPGSNSQERYIQAEREKGILQELFLNKESPHEPDPEPYEPIPPKLIPLDEECSMDETPYVETLEPGGSGGSPDGAGGSKLPPVLANLMGSMGAGKGPQGPGGGGINVQEILTSIMGSPNSHPSEELLKQPDYSDKIKQMLVPHGLLGPGPIANGFPPGGPGGPKGMQHFPPGPGGPMPGPHGGPGGPVGPRLLGPPPPPRGGDPFWDGPGDPMRGGPMRGGPGPGPGPYHRGRGGRGGNEPPPPPPPFRGARGGRSGGGPPNGRGGPGGGMVGGGGHRPHEGPGGGMGNSSGHRPHEGPGGGMGSGHRPHEGPGGSMGGGGGHRPHEGPGGGISGGSGHRPHEGPGGGMGAGGGHRPHEGPGGSMGGSGGHRPHEGPGHGGPHGHRPHDVPGHRGHDHRGPPPHEHRGHDGPGHGGGGHRGHDGGHSHGGDMSNRPVCRHFMMKGNCRYENNCAFYHPGVNGPPLP | 4.73 | 2.57
